Assay results published in FireProtDB (doi:10.1021/bi00017a003).

Settings: Hordeum vulgare; pH 6.3; 25 °C; GdnHCl; Fluorescence; MES 50 mM; whole UniProt chain shown

B1: Subtilisin-chymotrypsin inhibitor-2A wild type, P01053 (protein)
chain: MSSVEKKPEGVNTGAGDRHNLKTEWPELVGKSVEEAKKVILQDKPEAQIIVLPVGTIVTMEYRIDRVRLFVDKLDNIAQVPRVG
With B1 the denaturant m value was 1.9 kcal/mol/M and the “denaturant midpoint (higher = more stable)” value was 4 M.
